This note sets out measurements from US20250215095.

Series [1] deals with internally quenched peptide probe with CM LSGKSPWGL (SEQ ID NO: 178).
For series [2], the system named is internally quenched peptide probe with CM PWALSGRS (SEQ ID NO: 688).
For series [3], the system named is internally quenched peptide probe with CM AWGLSGRS (SEQ ID NO: 686).
Series [4] has as its system internally quenched peptide probe with CM PWGLRS (SEQ ID NO: 48).
Series [5] concerns internally quenched peptide probe with CM LSGRSPAGL (SEQ ID NO: 694).
The test system of series [6] is internally quenched peptide probe with CM LSGRSPWGL (SEQ ID NO: 177).
Series [7] deals with internally quenched peptide probe with CM PWGLSGRA (SEQ ID NO: 693).
The subject of series [8] is internally quenched peptide probe with CM PWGLSGR (SEQ ID NO: 163).
In series [9] the test system is internally quenched peptide probe with CM PWGLAGRS (SEQ ID NO: 690).
Series [10] has as its system internally quenched peptide probe with CM WGLSGRS (SEQ ID NO: 685).
In series [11] the test system is internally quenched peptide probe with CM PAGLSGRS (SEQ ID NO: 687).
The test system of series [12] is internally quenched peptide probe with CM PWGLSARS (SEQ ID NO: 691).
Series [13] concerns internally quenched peptide probe with CM PWGLSG (SEQ ID NO: 684).
The test system of series [14] is internally quenched peptide probe with CM PWGLSGAS (SEQ ID NO: 692).
Series [15] concerns internally quenched peptide probe with CM PWGLSGKS (SEQ ID NO: 150).
The test system of series [16] is internally quenched peptide probe with CM PWGLSGRS (SEQ ID NO: 12).
For series [17], the system named is internally quenched peptide probe with CM RSPWGL (SEQ ID NO: 90).
Series [18] has as its system internally quenched peptide probe with CM PWGASGRS (SEQ ID NO: 689).

matrix metalloprotease 9 (MMP9), sequence (chain, as listed by the source): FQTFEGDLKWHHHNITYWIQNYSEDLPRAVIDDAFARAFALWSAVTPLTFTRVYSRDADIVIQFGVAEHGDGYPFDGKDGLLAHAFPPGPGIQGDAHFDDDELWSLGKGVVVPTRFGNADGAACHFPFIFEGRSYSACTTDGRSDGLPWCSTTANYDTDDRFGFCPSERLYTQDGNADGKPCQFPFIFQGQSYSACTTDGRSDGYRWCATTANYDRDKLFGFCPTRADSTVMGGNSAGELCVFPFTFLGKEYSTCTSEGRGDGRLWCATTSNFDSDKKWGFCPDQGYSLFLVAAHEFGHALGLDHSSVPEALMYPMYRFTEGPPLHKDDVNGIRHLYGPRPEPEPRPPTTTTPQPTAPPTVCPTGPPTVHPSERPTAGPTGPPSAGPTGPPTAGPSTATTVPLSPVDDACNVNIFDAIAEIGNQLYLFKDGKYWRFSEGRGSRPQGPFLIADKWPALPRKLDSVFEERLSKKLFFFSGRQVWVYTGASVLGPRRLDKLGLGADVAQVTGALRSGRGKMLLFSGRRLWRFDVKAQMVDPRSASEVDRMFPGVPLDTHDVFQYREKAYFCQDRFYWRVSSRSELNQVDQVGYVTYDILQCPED

Turning to matrix metalloprotease 9 (MMP9), the Probe Cleavage (pM/s) in series [1] was determined as 630 pM/s; in series [2] it was 12800 pM/s; in [3], 2070 pM/s; in [4] it was 3830 pM/s; in series [5], 1630 pM/s; in [6] it was 1070 pM/s. Also, the Probe Cleavage (pM/s) turned out to be 17500 pM/s in series [7]; 17200 pM/s in series [8]; 13700 pM/s in series [9]; 581 pM/s in [10]; 16200 pM/s in series [11]; 17500 pM/s in series [12]. The Probe Cleavage (pM/s) in series [13] was determined as 13000 pM/s; in [14] it was 16400 pM/s; in series [15] it was 5360 pM/s; in [16], 7620 pM/s; in [17] it was 25500 pM/s; in series [18] it was 456 pM/s. Also, the Probe Cleavage (kcat/KM (M^-1 s^-1)) in series [4] is 150000 M⁻¹ s⁻¹; in [15] it was 130000 M⁻¹ s⁻¹; in series [16] it was 150000 M⁻¹ s⁻¹; in [17], 870000 M⁻¹ s⁻¹.
